Data taken from patent US20240207421A1, “NERVE TARGETING PEPTIDES AND METHODS OF USE” (ALUME BIOSCIENCES, INC., priority 2020, published 2024).

Target: Laminin 421/521
Assay: phage display, NGS count

Row | Binder | Count
1 | CSLANPATC | 52
2 | CGITQTTTC | 55
3 | GDLLLKR | 47
4 | SDRGKTVLHGQI | 54
5 | GSTTHPHFGLPG | 40
6 | EGHVWSEYTWGT | 50
7 | DDLLTAPRLGVW | 54
8 | NNNAAMQNHGVR | 51
9 | SFRNLEKLSLWS | 50
10 | GGGYHIFGPLVT | 43
11 | QTLQTRH | 44
12 | DGQVSDHSYVQW | 101
13 | CKWTQLWGC | 40
14 | AQRMNQA | 38
15 | GDLWNVP | 51
16 | GSLDMGNNKQPV | 62
17 | CSVWNSGNC | 43
18 | CLKDTHLNC | 40
19 | CHQRQQTYC | 55
20 | TFAAAQAELIMV | 38
21 | EYWHQRGSWFHR | 55
22 | FPLKIRT | 42
23 | YHLGPNQKMRTS | 48
24 | GDAQILM | 38
25 | ANRYLAS | 40
26 | WVAAERR | 115
27 | SGWEGKTHQGVR | 69

Row | Binder | Count
28 | VPQIRIK | 47
29 | MTHSAHNSQKTN | 117
30 | WEEHRVEILPDV | 38
31 | GFADVIHRKWSS | 53
32 | GHRTLVTSERYL | 38
33 | CTGRISKHC | 43
34 | HASNQRV | 93
35 | GWIQDTFVLGRS | 40
36 | WGANTTGRTHGG | 40
37 | HSFLGAR | 44
38 | WPVRNLL | 67
39 | CTSKLARHC | 45
40 | GHPWTEIDFMSS | 50
41 | SNPKHVSSLGQM | 40
42 | KQELSDNLASHR | 50
43 | SWQMRSY | 48
44 | ADMPQMTLKYGV | 47
45 | CNHLTQKLC | 45
46 | QGHPFIY | 40
47 | CWSGNSRSC | 42
48 | DRLTPITWDWSR | 86
49 | SLNTTWVSPMMK | 37
50 | LQSNAADHHQGM | 75
51 | GAMMNSNNLVAR | 43
52 | WAFKAPQ | 61
53 | AKTQAPSNWSGV | 43

The next lines start with the values.

Row | Count | Binder
54 | 38 | LGPSTQGAGQTR
55 | 55 | YTPRNQL
56 | 53 | HQSLAGVPWSRH
57 | 49 | SLAVANTRFMIR
58 | 42 | AQGVWWSEWFAP
59 | 44 | LLAGPFR
60 | 95 | GRTIHSM
61 | 95 | RLVTASMVSPSF
62 | 42 | LARSSIMAANNV
63 | 52 | GEPLTRFPNSDS
64 | 52 | KPILWNRSLNAL
65 | 40 | GQPRNIHLPGTH
66 | 89 | WTKHNTPAHHLS
67 | 49 | QTRWDDGSYQIS
68 | 47 | AWNGNRS
69 | 110 | KISMNRLHANFT
70 | 53 | VPVFLDQARVMK
71 | 42 | CFQPKMNSC
72 | 51 | GSGFRNEEHSAH
73 | 51 | GPKNHHQ
74 | 114 | WDLPTLRKTKQA
75 | 80 | ATSKYPNSWAQT
76 | 51 | RAQAHQV
77 | 50 | ETYKVTRVISPW
78 | 49 | ASHSRPLMNYAP
79 | 45 | ALGGEPRKAYQR
